Data from article PMC5955432.

Target: Skp1-FBW7 complex (UniProt Q969H0)
Test: ITC; MicroCal VP-ITC, 30°C; cell: 15 μM purified Skp1-FBW7 complex in 50 mM phosphate buffer, pH 7.4; syringe: 321 μM FIRΔexon2; 10 μL injections, 20 s, 150 s delay

UniProt Q969H0, sequence (Q969H0 whole entry, chain 1 of 2): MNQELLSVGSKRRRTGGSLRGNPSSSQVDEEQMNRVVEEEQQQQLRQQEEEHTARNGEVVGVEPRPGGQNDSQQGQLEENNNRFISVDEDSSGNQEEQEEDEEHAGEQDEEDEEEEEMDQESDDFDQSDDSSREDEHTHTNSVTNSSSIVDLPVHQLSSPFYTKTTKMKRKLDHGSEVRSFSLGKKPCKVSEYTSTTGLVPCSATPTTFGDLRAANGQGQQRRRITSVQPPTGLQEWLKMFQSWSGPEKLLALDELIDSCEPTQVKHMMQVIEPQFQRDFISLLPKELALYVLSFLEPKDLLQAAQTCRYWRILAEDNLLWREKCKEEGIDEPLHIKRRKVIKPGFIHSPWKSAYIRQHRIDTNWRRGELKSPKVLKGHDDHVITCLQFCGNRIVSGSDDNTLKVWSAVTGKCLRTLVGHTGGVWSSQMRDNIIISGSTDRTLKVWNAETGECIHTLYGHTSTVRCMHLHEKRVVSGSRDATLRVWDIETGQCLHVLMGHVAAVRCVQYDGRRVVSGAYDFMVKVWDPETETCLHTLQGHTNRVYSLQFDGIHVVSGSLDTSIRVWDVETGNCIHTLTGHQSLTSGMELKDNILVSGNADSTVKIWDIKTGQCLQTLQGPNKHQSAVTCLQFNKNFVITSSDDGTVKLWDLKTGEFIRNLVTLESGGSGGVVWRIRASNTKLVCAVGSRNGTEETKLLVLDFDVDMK
UniProt Q969H0, sequence (P63208 whole entry, chain 2 of 2, further chain): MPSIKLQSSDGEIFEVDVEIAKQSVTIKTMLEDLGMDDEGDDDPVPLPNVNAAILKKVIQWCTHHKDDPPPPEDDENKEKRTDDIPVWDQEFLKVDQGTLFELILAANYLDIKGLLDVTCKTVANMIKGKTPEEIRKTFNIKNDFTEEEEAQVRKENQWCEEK

Ka: > 1e+08 M⁻¹
Substance: FIRΔexon2 (alternative splicing variant of far upstream element binding protein 1 (FUBP1) interacting repressor, FIR / PUF60, lacking exon 2) (natural protein)
